Laboratory results published in patent publication US20220281990A1 (MERRIMACK PHARMACEUTICALS, published 2022).
Where a chain is given by its changes, count along the chain named. Values belong to the binder of their own block, whether it stands above or below them.

Key:
[1] = molecular target: T1, Human TNFR2 expressed on cells (CHO-hTNFR2 cells) (human, UniProt P20333 23-461); test: flow cytometry; IgG binding to CHO-hTNFR2 cells; four parameter fit (FIG. 10)
T1 construct: also called CHO cells overexpressing human TNFR2; human TNFR2 reporter cells (HEK293)
T1 sequence: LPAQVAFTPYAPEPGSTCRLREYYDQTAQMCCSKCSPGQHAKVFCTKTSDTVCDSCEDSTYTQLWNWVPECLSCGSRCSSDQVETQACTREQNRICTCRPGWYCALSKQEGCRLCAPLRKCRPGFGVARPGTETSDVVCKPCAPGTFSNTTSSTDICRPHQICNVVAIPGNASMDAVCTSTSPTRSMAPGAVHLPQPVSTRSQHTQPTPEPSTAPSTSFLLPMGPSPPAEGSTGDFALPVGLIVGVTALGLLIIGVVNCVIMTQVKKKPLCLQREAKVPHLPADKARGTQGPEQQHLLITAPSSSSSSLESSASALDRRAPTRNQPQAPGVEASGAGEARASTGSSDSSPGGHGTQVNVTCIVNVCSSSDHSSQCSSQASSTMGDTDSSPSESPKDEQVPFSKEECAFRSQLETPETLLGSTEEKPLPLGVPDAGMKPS

[2] = molecular target: T1, Human TNFR2 expressed on cells …; test: flow cytometry; IgG inhibiting TNF (1 nM) binding to CHO-hTNFR2 cells (FIG. 12)
[3] = molecular target: T1, Human TNFR2 expressed on cells …; test: flow cytometry; IgG inhibiting TNF (1 nM) binding to CHO-hTNFR2 cells (FIG. 13A); FIG. 13A
[4] = molecular target: T2, recombinant human TNFR2-His (human, UniProt P20333 23-257); test: biolayer interferometry (BLI); IgG1 and TNFR2-His protein (FIG. 11)
T2 construct: also called hTNFR2-His; TNFR2-His protein; not shown: His tag
T2 sequence: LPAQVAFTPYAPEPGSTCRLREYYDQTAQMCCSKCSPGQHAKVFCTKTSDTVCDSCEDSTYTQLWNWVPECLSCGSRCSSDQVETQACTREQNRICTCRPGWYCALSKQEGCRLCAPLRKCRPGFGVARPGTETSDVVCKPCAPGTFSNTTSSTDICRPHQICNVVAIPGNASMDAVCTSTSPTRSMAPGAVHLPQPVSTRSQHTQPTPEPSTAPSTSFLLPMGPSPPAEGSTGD

[5] = molecular target: T1, Human TNFR2 expressed on cells …; test: flow cytometry; IgG inhibiting TNF (1 nM) binding to CHO-hTNFR2 cells (FIG. 13B); FIG. 13B
[6] = molecular target: T3, recombinant human TNFR2-hFc protein (human, UniProt P20333 23-257); test: flow cytometry; hTNFR2-Fc binding to scFv displayed on yeast (FIG. 4)
T3 construct: also called hTNFR2-Fc; human TNFR2-Fc; not shown: human Fc
T3 sequence: T2 sequence

[7] = molecular target: T2, recombinant human TNFR2-His; test: flow cytometry; hTNFR2-His binding to scFv displayed on yeast (FIG. 8)
[8] = molecular target: T1, Human TNFR2 expressed on cells …; test: flow cytometry; soluble scFv inhibiting TNF (1 nM) binding to CHO-hTNFR2 cells (FIG. 7)
[9] = molecular target: T3, recombinant human TNFR2-hFc protein; test: flow cytometry; hTNFR2-Fc binding to scFv displayed on yeast; one site binding fit (FIG. 4)
[10] = molecular target: T1, Human TNFR2 expressed on cells …; test: flow cytometry; soluble scFv inhibiting TNF (1 nM) binding to CHO-hTNFR2 cells (FIGS. 5A-5B)
[11] = molecular target: T3, recombinant human TNFR2-hFc protein; test: flow cytometry; hTNFR2-Fc binding to scFv displayed on yeast; one site binding fit (FIG. 6B); FIG. 6B
[12] = molecular target: T3, recombinant human TNFR2-hFc protein; test: flow cytometry; TNFR2-Fc binding to scFv displayed on yeast (FIGS. 6A-6C)
[13] = molecular target: T3, recombinant human TNFR2-hFc protein; test: flow cytometry; hTNFR2-Fc binding to scFv displayed on yeast; one site binding fit (FIG. 6C)
[14] = molecular target: T3, recombinant human TNFR2-hFc protein; test: flow cytometry; hTNFR2-Fc binding to scFv displayed on yeast; one site binding fit (FIG. 6B)
[15] = molecular target: T3, recombinant human TNFR2-hFc protein; test: flow cytometry; hTNFR2-Fc binding to scFv displayed on yeast; one site binding fit (FIG. 6A)

Kd [4]: 0.344 nM
IC50 [5]: 0.088 nM
B2: UC2.3.8-IgG1 (antibody, V domains shown)
VH: QVQLLESGGGLVQPGGSLRLSCAASGFTFSTYAMSWIRQAPGKGLEWVSIISDGGDATVYADSVKGRFTISRDNNRNTLYLQMNSLRAEDTAVYYCARDGTSAAAFDSWGQGTLVTVSS
VL: DIQMTQSPSSLSASVGDRVTITCQASQDITNFLNWYQQKPGKAPKLLIYDASRRRAGVPSRFSGSGSGTDFTFTISSLQPEDIATYYCQQSDSYPITFGQGTKVEIKR
notes: Full-length human IgG1; UC2.3.3 heavy chain combined with UC2.3.7 light chain; also called anti-human TNFR2 IgG UC2.3.8

Kd [4]: 0.573 nM
IC50 [3]: 0.89 nM
IC50 [5]: 0.68 nM
B3: UC2.3.3-IgG1 (antibody, V domains shown)
VH: B2 VH
VL: B2 VL with R53T, R54L, R55Q, A56T
notes: Full-length human IgG1; also called anti-human TNFR2 IgG UC2.3.3

Kd [4]: 17.1 nM
IC50 [3]: 8.69 nM
B5: UC2.3.7-IgG1 (antibody, V domains shown)
VH: B2 VH with N75S, R76K
VL: B2 VL
notes: Full-length human IgG1; also called anti-human TNFR2 IgG UC2.3.7

fold higher affinity (vs parental scFv) [12]: 10 fold
Kd [13]: 0.87 nM
B7: UC2.3.13 (S4-2 1D10-1G9-1G11) scFv (scFv)
scFv: QVQLLESVGGLVQPGGSLRLSCAVSGFTFSTYAMSWIRQAPGKGLEWVSIISDGGDVTVYADSVKGRFTISRDNSKNTLYLQMNSLRAEDTAVYYCARDRTSAAAFDSWGQGTLVSDSSASSGGSTSGSGKPGSGEGSSGSSRDIQMTQSPSSLSASVGDRVTITCQASQDITNFLNWYQQKPGKAPKLLIYDASTLQTGVPSRFSGSGSGTDFNFTISSLQPEDIATYYCQQSDSYPITFGQGTKVEIKR

fold higher affinity (vs parental scFv) [12]: 10 fold
Kd [13]: 0.65 nM
B10: UC2.3.14 (S4-2 1D10-1G9-1H11) scFv (scFv)
scFv: B7 scFv with V8G, C22Y, V24A, G42R, V57A, S116T, D117V, S142A, N215T

fold higher affinity (vs parental scFv) [12]: 10 fold
Kd [13]: 0.78 nM
B11: UC2.3.15 (S4-2 1D10-1G9-1H12) scFv (scFv)
scFv: B7 scFv with V8G, V57A, C96W, R100G, S116T, D117V, S121N, S142A, N215T

Continued, binder first:

B1: UC2.3-IgG1 (antibody, V domains shown)
VH: B2 VH with N75S, R76K
VL: B2 VL with R53T, R54L, R55Q, A56T
notes: Full-length human IgG1; also called anti-human TNFR2 IgG UC2.3
EC50 [1]: 3.4 nM
IC50 [2]: 12.4 nM
IC50 [3]: 48 nM

B4: UC2-IgG1 (antibody, V domains shown)
VH: B2 VH with I37V, V59F, N75S, R76K
VL: B2 VL with R53T, R54L, R55Q, A56T
notes: Full-length human IgG1; also called anti-human TNFR2 IgG UC2
EC50 [1]: 97.9 nM

B6: UC2.3 (S4-2 1D10-1G9) scFv (scFv)
scFv: B7 scFv with V8G, V24A, V57A, R100G, S116T, D117V, S142A, N215T
fold higher affinity (vs parental scFv) [6]: ~5 fold
EC50 [7]: 33.9 nM
IC50 [8]: 4.85 nM
Kd [9]: 8.88 nM
IC50 [10]: 6.59 nM
Kd [11]: 8.16 nM

B8: UC2.3.3 (S4-2 1D10-1G9-1F10) scFv (scFv)
scFv: B7 scFv with V8G, V24A, V57A, S75N, K76R, R100G, S116T, D117V, S142A, N215T
notes: also called UC2.3.3 (monomer)
fold higher affinity (vs parental scFv) [12]: 10 fold
IC50 [8]: 3.94 nM
Kd [14]: 1.35 nM

B9: UC2.3.3 scFv (dimer) (scFv)
scFv: B7 scFv with V8G, V24A, V57A, S75N, K76R, R100G, S116T, D117V, S142A, N215T
notes: also called UC2.3.3 (dimer)
IC50 [8]: 1.72 nM

B12: UC1.1 (S4-2 1B5-1D9) scFv (scFv)
scFv: QVQLLESGGGLVQPGGSLRLSCAASGFSFTSYAMTWVRQAPGKGLEWVSGISGGGAATFYADSVKGRFTISRDNSKNTLYLQMNSLRAEDTAVYYCARQSQYVGGFDYWGQGTLVTVSSASSGGSTSGSGKPGSGEGSSGSARQSVLTQPPSVSGAPGQRVTISCTGSSSNIGAGYGVHWYQQLPGTAPKLLIHGNTNRPSGVPDRFSGFKSGTSASLAITGLQAEDEADYYCQSYDSSLSGWVFGGGTKLTVLG
fold higher affinity (vs parental scFv) [6]: ~5 fold
Kd [9]: 2.59 nM
Kd [15]: 2.87 nM
IC50 [10]: 10.7 nM
